{"source": "IntAct's records for PubMed 35512704", "parents": {"B1": {"name": "Mothers against decapentaplegic homolog 4 (Homo sapiens), Q13485 (parent)", "chain": "MDNMSITNTPTSNDACLSIVHSLMCHRQGGESETFAKRAIESLVKKLKEKKDELDSLITAITTNGAHPSKCVTIQRTLDGRLQVAGRKGFPHVIYARLWRWPDLHKNELKHVKYCQYAFDLKCDSVCVNPYHYERVVSPGIDLSGLTLQSNAPSSMMVKDEYVHDFEGQPSLSTEGHSIQTIQHPPSNRASTETYSTPALLAPSESNATSTANFPNIPVASTSQPASILGGSHSEGLLQIASGPQPGQQQNGFTGQPATYHHNSTTTWTGSRTAPYTPNLPHHQNGHLQHHPPMPPHPGHYWPVHNELAFQPPISNHPAPEYWCSIAYFEMDVQVGETFKVPSSCPIVTVDGYVDPSGGDRFCLGQLSNVHRTEAIERARLHIGKGVQLECKGEGDVWVRCLSDHAVFVQSYYLDREAGRAPGDAVHKIYPSAYIKVFDLRQCHRQMQQQAATAQAAAAAQAAAVAGNIPGPGSVGGIAPAISLSAAAGIGVDDLRRLCILRMSFVKGWGPDYPRQSIKETPCWIEIHLHRALQLLDEVLHTMPIADPQPLD", "partner": "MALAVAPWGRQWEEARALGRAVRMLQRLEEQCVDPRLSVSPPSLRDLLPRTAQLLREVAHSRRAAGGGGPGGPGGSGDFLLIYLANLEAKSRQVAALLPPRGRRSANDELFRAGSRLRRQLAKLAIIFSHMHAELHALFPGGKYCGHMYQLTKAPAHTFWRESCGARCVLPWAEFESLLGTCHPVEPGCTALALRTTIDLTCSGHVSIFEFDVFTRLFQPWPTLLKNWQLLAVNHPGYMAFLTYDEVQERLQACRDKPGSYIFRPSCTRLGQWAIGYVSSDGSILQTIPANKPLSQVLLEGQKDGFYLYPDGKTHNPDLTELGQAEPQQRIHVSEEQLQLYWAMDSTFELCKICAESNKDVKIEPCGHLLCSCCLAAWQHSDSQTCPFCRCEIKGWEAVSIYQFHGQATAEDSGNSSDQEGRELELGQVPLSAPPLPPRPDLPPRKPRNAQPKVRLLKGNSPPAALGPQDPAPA"}, "B2": {"name": "Mothers against decapentaplegic homolog 4 (Homo sapiens), Q13485 (parent)", "chain": "B1 chain", "partner": "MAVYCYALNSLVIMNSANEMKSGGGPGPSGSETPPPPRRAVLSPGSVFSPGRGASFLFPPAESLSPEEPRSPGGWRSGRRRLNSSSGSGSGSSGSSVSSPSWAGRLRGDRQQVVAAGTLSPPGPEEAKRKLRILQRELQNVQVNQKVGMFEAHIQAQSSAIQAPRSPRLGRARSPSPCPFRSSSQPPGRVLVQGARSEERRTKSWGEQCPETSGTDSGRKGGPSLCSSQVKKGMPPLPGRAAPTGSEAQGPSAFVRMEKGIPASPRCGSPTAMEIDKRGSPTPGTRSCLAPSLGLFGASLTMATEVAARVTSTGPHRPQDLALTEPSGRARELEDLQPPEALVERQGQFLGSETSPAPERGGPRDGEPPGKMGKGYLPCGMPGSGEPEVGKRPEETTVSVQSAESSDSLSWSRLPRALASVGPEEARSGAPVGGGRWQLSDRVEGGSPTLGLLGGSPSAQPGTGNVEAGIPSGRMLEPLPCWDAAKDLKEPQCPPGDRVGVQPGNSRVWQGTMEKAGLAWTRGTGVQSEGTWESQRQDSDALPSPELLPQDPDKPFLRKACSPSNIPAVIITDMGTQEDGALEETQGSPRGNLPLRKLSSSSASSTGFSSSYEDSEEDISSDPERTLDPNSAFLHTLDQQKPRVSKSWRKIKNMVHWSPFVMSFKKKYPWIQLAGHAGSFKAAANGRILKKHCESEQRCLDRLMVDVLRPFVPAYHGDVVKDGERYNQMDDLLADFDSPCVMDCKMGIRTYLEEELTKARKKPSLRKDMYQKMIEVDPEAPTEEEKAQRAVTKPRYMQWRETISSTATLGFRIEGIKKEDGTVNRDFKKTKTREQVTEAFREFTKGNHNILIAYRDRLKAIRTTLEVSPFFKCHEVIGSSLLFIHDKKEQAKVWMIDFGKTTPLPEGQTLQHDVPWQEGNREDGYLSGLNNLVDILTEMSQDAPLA"}, "B3": {"name": "Mothers against decapentaplegic homolog 4 (Homo sapiens), Q13485 (parent)", "chain": "B1 chain", "partner": "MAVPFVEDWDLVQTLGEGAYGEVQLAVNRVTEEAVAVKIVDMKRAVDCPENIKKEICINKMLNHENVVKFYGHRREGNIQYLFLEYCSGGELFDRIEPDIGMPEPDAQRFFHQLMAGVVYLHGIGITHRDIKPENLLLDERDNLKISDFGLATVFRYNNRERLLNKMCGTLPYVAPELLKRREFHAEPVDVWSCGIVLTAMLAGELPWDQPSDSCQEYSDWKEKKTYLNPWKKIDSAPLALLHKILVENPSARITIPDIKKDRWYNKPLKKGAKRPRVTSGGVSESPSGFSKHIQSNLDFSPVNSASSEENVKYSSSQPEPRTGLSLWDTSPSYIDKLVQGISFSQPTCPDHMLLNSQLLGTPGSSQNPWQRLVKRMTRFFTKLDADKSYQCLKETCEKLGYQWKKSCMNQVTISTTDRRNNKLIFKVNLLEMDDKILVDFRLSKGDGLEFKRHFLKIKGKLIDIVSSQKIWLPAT"}, "B4": {"name": "Mothers against decapentaplegic homolog 4 (Homo sapiens), Q13485 (parent)", "chain": "B1 chain", "partner": "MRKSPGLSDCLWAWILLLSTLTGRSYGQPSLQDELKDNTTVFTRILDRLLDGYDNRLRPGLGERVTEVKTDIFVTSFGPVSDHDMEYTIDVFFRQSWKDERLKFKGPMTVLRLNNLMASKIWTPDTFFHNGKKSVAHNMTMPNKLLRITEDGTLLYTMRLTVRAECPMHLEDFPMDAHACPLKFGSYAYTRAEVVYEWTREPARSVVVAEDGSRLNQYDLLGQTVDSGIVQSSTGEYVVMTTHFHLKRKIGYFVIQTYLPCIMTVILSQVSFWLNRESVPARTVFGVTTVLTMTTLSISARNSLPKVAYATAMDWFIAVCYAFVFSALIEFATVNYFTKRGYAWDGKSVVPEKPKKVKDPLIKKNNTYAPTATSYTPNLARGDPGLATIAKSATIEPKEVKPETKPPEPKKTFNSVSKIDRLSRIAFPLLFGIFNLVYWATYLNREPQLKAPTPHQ"}, "B5": {"name": "Mothers against decapentaplegic homolog 4 (Homo sapiens), Q13485 (parent)", "chain": "B1 chain", "partner": "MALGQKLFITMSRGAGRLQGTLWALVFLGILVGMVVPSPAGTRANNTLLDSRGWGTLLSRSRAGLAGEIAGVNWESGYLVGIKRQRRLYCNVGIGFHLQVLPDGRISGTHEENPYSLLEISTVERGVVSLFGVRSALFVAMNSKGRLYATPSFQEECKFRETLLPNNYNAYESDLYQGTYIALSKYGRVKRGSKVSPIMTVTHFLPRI"}, "B6": {"name": "Mothers against decapentaplegic homolog 4 (Homo sapiens), Q13485 (parent)", "chain": "B1 chain", "partner": "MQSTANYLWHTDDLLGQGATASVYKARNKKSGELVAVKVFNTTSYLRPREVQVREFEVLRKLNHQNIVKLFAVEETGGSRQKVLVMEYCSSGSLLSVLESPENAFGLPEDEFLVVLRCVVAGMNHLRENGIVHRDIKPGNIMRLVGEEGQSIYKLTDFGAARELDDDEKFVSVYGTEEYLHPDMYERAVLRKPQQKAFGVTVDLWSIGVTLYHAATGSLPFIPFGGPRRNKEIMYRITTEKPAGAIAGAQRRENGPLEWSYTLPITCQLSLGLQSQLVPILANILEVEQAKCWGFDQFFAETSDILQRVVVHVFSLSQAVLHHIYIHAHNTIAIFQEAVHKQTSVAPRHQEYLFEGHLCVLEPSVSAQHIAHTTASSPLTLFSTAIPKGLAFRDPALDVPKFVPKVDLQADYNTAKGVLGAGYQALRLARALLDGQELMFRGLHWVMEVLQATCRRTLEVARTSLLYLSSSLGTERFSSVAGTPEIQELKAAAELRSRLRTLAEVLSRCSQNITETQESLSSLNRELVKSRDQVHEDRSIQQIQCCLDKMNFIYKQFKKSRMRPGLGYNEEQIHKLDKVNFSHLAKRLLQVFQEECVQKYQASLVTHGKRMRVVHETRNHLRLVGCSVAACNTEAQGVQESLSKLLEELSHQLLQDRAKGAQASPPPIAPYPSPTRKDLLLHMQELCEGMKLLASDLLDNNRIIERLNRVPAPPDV"}, "B7": {"name": "Mothers against decapentaplegic homolog 4 (Homo sapiens), Q13485 (parent)", "chain": "B1 chain", "partner": "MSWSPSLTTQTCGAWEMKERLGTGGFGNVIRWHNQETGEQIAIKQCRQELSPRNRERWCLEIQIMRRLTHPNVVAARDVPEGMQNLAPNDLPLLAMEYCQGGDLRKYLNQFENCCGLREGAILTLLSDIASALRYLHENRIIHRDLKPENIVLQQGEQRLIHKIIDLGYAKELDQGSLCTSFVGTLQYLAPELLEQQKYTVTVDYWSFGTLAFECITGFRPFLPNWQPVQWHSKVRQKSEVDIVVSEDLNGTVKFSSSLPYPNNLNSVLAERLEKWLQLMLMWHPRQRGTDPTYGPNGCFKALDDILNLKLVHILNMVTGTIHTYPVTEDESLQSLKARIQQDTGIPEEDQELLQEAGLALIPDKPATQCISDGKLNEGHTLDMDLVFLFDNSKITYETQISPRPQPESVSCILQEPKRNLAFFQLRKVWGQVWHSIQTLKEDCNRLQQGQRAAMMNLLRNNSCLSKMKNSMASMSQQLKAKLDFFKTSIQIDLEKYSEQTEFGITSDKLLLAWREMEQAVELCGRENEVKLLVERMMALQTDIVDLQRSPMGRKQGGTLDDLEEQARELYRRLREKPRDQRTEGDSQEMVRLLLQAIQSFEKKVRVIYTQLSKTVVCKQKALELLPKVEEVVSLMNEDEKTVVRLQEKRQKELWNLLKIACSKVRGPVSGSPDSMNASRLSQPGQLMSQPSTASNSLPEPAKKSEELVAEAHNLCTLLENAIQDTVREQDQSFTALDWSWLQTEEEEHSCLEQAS"}}, "data": [{"variants_of": "B1", "details": "with cblc_human CBLC", "values": [{"variant": "D351H", "effect of a mutation on the interaction": "with no effect"}]}, {"variants_of": "B1", "details": "with cblc_human CBLC", "remark": "another data set of the same source", "values": [{"variant": "R361H", "effect of a mutation on the interaction": "with no effect"}]}, {"variants_of": "B1", "details": "with cblc_human CBLC", "remark": "another data set of the same source", "values": [{"variant": "R361C", "effect of a mutation on the interaction": "with no effect"}]}, {"variants_of": "B2", "details": "with ip3kb_human ITPKB", "values": [{"variant": "G386D", "effect of a mutation on the interaction": "with no effect"}]}, {"variants_of": "B2", "details": "with ip3kb_human ITPKB", "remark": "another data set of the same source", "values": [{"variant": "D351H", "effect of a mutation on the interaction": "with no effect"}]}, {"variants_of": "B2", "details": "with ip3kb_human ITPKB", "remark": "another data set of the same source", "values": [{"variant": "R361C", "effect of a mutation on the interaction": "with no effect"}]}, {"variants_of": "B2", "details": "with ip3kb_human ITPKB", "remark": "another data set of the same source", "values": [{"variant": "R361H", "effect of a mutation on the interaction": "with no effect"}]}, {"variants_of": "B3", "details": "with chk1_human CHEK1, O14757", "values": [{"variant": "R361C", "effect of a mutation on the interaction": "with no effect"}]}, {"variants_of": "B3", "details": "with chk1_human CHEK1, O14757", "remark": "another data set of the same source", "values": [{"variant": "R361H", "effect of a mutation on the interaction": "with no effect"}]}, {"variants_of": "B3", "details": "with chk1_human CHEK1, O14757", "remark": "another data set of the same source", "values": [{"variant": "D351H", "effect of a mutation on the interaction": "with no effect"}]}, {"variants_of": "B3", "details": "with chk1_human CHEK1, O14757", "remark": "another data set of the same source", "values": [{"variant": "G386D", "effect of a mutation on the interaction": "with no effect"}]}, {"variants_of": "B4", "details": "with gbra1_human GABRA1, P14867", "values": [{"variant": "D351H", "effect of a mutation on the interaction": "with no effect"}]}, {"variants_of": "B4", "details": "with gbra1_human GABRA1, P14867", "remark": "another data set of the same source", "values": [{"variant": "R361C", "effect of a mutation on the interaction": "with no effect"}]}, {"variants_of": "B4", "details": "with gbra1_human GABRA1, P14867", "remark": "another data set of the same source", "values": [{"variant": "R361H", "effect of a mutation on the interaction": "with no effect"}]}, {"variants_of": "B4", "details": "with gbra1_human GABRA1, P14867", "remark": "another data set of the same source", "values": [{"variant": "G386D", "effect of a mutation on the interaction": "with no effect"}]}, {"variants_of": "B5", "details": "with fgf6_human FGF6, P10767", "values": [{"variant": "G386D", "effect of a mutation on the interaction": "with no effect"}]}, {"variants_of": "B5", "details": "with fgf6_human FGF6, P10767", "remark": "another data set of the same source", "values": [{"variant": "R361C", "effect of a mutation on the interaction": "with no effect"}]}, {"variants_of": "B5", "details": "with fgf6_human FGF6, P10767", "remark": "another data set of the same source", "values": [{"variant": "R361H", "effect of a mutation on the interaction": "with no effect"}]}, {"variants_of": "B5", "details": "with fgf6_human FGF6, P10767", "remark": "another data set of the same source", "values": [{"variant": "D351H", "effect of a mutation on the interaction": "with no effect"}]}, {"variants_of": "B6", "details": "with ikke_human IKBKE", "values": [{"variant": "G386D", "effect of a mutation on the interaction": "with no effect"}]}, {"variants_of": "B6", "details": "with ikke_human IKBKE", "remark": "another data set of the same source", "values": [{"variant": "D351H", "effect of a mutation on the interaction": "with no effect"}]}, {"variants_of": "B7", "details": "with ikkb_human IKBKB", "values": [{"variant": "D351H", "effect of a mutation on the interaction": "with no effect"}]}, {"variants_of": "B7", "details": "with ikkb_human IKBKB", "remark": "another data set of the same source", "values": [{"variant": "R361C", "effect of a mutation on the interaction": "with no effect"}]}]}
